From the supplement of paper PMC10567573

B1: TRIM15 (parent)
chain: LSQMGAQSSGKILLCPLCQEEEQA
B2: FLOT1 (parent)
chain: QMAKKAEAFQLYQEAAQLDMLLEK
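Note: lentivirally expressed fusions sorted by FACS into six bins by GFP to DsRed ratio, PSI derived from sequencing read proportions per bin multiplied by bin number.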

Variants of: B1
Experiment: protein stability index of a GFP-peptide fusion (GPS, HEK-293T) (PSI 1-6); higher = more stable
Settings: c terminus: a fixed tail appended
LSQMGAQSSGKILLCPLCQEEEYA gave a protein stability index of 3.09. LSQMGAQSSGKILLCPLCQEEEDA gave a protein stability index of 2.89. Work on LSQMGAQSSGKICLCPLCQEEEQA yielded a protein stability index of 4.67. Variant LSQMGAQSSGKIELCPLCQEEEQA has a protein stability index of 4.24. Variant LSQMGAQSSGKIILCPLCQEEEQA has a protein stability index of 4.08. For LSQMGAQSSGKIKLCPLCQEEEQA, the protein stability index was 4.65. With LSPMGAQSSGKILLCPLCQEEEQA the protein stability index was 4.9. Work on LSKMGAQSSGKILLCPLCQEEEQA yielded a protein stability index of 4.1. In the case of LSQMGAQSSGKILLCPFCQEEEQA, the protein stability index is reported as 3.23. LSQMGAQSSGKILLCPNCQEEEQA gave a protein stability index of 4.43. Variant LSQMGAQSSGKILLCPRCQEEEQA has a protein stability index of 4.31. In the case of LSQMGAQSSGKMLLCPLCQEEEQA, the protein stability index is reported as 3.79. Variant LSQMGAQSSGKGLLCPLCQEEEQA has a protein stability index of 4.59. With LSQMGAQSSGKYLLCPLCQEEEQA the protein stability index was 3.61. Work on LSQMGACSSGKILLCPLCQEEEQA yielded a protein stability index of 3.71. For LSQMGALSSGKILLCPLCQEEEQA, the protein stability index was 2.8. Variant LSQMGAHSSGKILLCPLCQEEEQA has a protein stability index of 4.53. For LSQMGWQSSGKILLCPLCQEEEQA, the protein stability index was 3.94. Variant LSQMGNQSSGKILLCPLCQEEEQA has a protein stability index of 3.12. With LSQMGEQSSGKILLCPLCQEEEQA the protein stability index was 3.56. In the case of LSQMGAQSSGFILLCPLCQEEEQA, the protein stability index is reported as 2.44. LSQMGAQSSGVILLCPLCQEEEQA showed a protein stability index of 2.04. LSQMGAQSSGCILLCPLCQEEEQA gave a protein stability index of 2.79. With LSQMGAQSSGQILLCPLCQEEEQA the protein stability index was 3.9. For LSQMGAQSSGWILLCPLCQEEEQA, the protein stability index was 2.76. In the case of LSQMGAQSSGAILLCPLCQEEEQA, the protein stability index is reported as 3.14. With LSQMGAQSSGKILLCPLCYEEEQA the protein stability index was 3.73. For LSQMGAQSSGKILLCPLCTEEEQA, the protein stability index was 3.83. LSQMGAQSSGKILLCPLCLEEEQA gave a protein stability index of 2.62. In the case of LSQMGAQSSGKILLCPLCWEEEQA, the protein stability index is reported as 2.78. LSQMGAQSSGKILLCPLCQEEEQW showed a protein stability index of 2.44. LSQMGAQSSGKILLCPLCQEEEQE gave a protein stability index of 3.29. LSQMGAQSSGKILLCPLCQEEEQL gave a protein stability index of 2.63. Variant LSQMGAQSSQKILLCPLCQEEEQA has a protein stability index of 3.58. LSQMGAQSSHKILLCPLCQEEEQA gave a protein stability index of 3.71. Work on LSQMGAQSSCKILLCPLCQEEEQA yielded a protein stability index of 3.86. With LSQMGAQSSGKILLCPLCQEELQA the protein stability index was 3.38. In the case of LSQMGAQSSGKILLCPLCQEEGQA, the protein stability index is reported as 3.12. Work on LSQMGAQSSGKILLCPLCQEEYQA yielded a protein stability index of 2.02. For LSQMPAQSSGKILLCPLCQEEEQA, the protein stability index was 2.76. Work on GSQMGAQSSGKILLCPLCQEEEQA yielded a protein stability index of 3.96. ISQMGAQSSGKILLCPLCQEEEQA gave a protein stability index of 3.38. Work on NSQMGAQSSGKILLCPLCQEEEQA yielded a protein stability index of 3.75. With LSQLGAQSSGKILLCPLCQEEEQA the protein stability index was 4.22. Work on LSQVGAQSSGKILLCPLCQEEEQA yielded a protein stability index of 2.81. In the case of LSQIGAQSSGKILLCPLCQEEEQA, the protein stability index is reported as 3.82. Work on LSQMGAQSSGKILLCPLCQEYEQA yielded a protein stability index of 2.82. LSQMGAQSSGKILLCPLCQEQEQA showed a protein stability index of 2.91. With LSQMGAQSSGKILLCPLTQEEEQA the protein stability index was 4.86. With LSQMGAQSSGKILLCPLPQEEEQA the protein stability index was 3.47. For LSQMGAQSSGKILLWPLCQEEEQA, the protein stability index was 4.47. For LFQMGAQSSGKILLCPLCQEEEQA, the protein stability index was 2.96. For LEQMGAQSSGKILLCPLCQEEEQA, the protein stability index was 4. In the case of LSQMGAQSSGKILLCPLCQGEEQA, the protein stability index is reported as 2.81. Variant LSQMGAQSSGKILLCPLCQFEEQA has a protein stability index of 2.27. LSQMGAQSSGKILLCPLCQPEEQA showed a protein stability index of 3.75. LSQMGAQSQGKILLCPLCQEEEQA gave a protein stability index of 2.65. With LSQMGAQSHGKILLCPLCQEEEQA the protein stability index was 3.71. With LSQMGAQSYGKILLCPLCQEEEQA the protein stability index was 3.9. With LSQMGAQSSGKILQCPLCQEEEQA the protein stability index was 4.52. Work on LSQMGAQSSGKILCCPLCQEEEQA yielded a protein stability index of 3.94. With LSQMGAQFSGKILLCPLCQEEEQA the protein stability index was 2.76. LSQMGAQCSGKILLCPLCQEEEQA showed a protein stability index of 2.89. For LSQMGAQESGKILLCPLCQEEEQA, the protein stability index was 3.82. For LSQMGAQVSGKILLCPLCQEEEQA, the protein stability index was 3.51. LSQMGAQISGKILLCPLCQEEEQA gave a protein stability index of 3.14. With LSQMGAQWSGKILLCPLCQEEEQA the protein stability index was 2.65. LSQMGAQSSGKILLCHLCQEEEQA showed a protein stability index of 3.8. LSQMGAQSSGKILLCYLCQEEEQA showed a protein stability index of 2.97.

Variants of: B2
Experiment: as above
Settings: c terminus: a fixed tail appended
Variant IMAKKAEAFQLYQEAAQLDMLLEK has a protein stability index of 2.83. For SMAKKAEAFQLYQEAAQLDMLLEK, the protein stability index was 3.78. Work on LMAKKAEAFQLYQEAAQLDMLLEK yielded a protein stability index of 2.5. YMAKKAEAFQLYQEAAQLDMLLEK gave a protein stability index of 2.96. Variant AMAKKAEAFQLYQEAAQLDMLLEK has a protein stability index of 2.01. Work on HMAKKAEAFQLYQEAAQLDMLLEK yielded a protein stability index of 2.21. In the case of NMAKKAEAFQLYQEAAQLDMLLEK, the protein stability index is reported as 1.8. PMAKKAEAFQLYQEAAQLDMLLEK gave a protein stability index of 2.05. Work on EMAKKAEAFQLYQEAAQLDMLLEK yielded a protein stability index of 2.19. Work on DMAKKAEAFQLYQEAAQLDMLLEK yielded a protein stability index of 1.9. VMAKKAEAFQLYQEAAQLDMLLEK gave a protein stability index of 2.23. TMAKKAEAFQLYQEAAQLDMLLEK showed a protein stability index of 2.27. With RMAKKAEAFQLYQEAAQLDMLLEK the protein stability index was 1.69. Work on QHAKKAEAFQLYQEAAQLDMLLEK yielded a protein stability index of 1.57. QGAKKAEAFQLYQEAAQLDMLLEK showed a protein stability index of 2.78. Variant QNAKKAEAFQLYQEAAQLDMLLEK has a protein stability index of 1.92. Variant QPAKKAEAFQLYQEAAQLDMLLEK has a protein stability index of 1.46. Work on QCAKKAEAFQLYQEAAQLDMLLEK yielded a protein stability index of 1.61. For QEAKKAEAFQLYQEAAQLDMLLEK, the protein stability index was 2.07. With QDAKKAEAFQLYQEAAQLDMLLEK the protein stability index was 2.45. With QIAKKAEAFQLYQEAAQLDMLLEK the protein stability index was 1.36. For QAAKKAEAFQLYQEAAQLDMLLEK, the protein stability index was 1.46. With QKAKKAEAFQLYQEAAQLDMLLEK the protein stability index was 2.4. For QLAKKAEAFQLYQEAAQLDMLLEK, the protein stability index was 1.84. Work on QFAKKAEAFQLYQEAAQLDMLLEK yielded a protein stability index of 1.78.
